Target: F-actin (rabbit muscle actin polymerised in vitro) (rabbit) (UniProt P68135)
Assay: co-sedimentation

Kd: 300 nM
Substance: GST-PICK1 (from UniProt Q9EP80 1-416) (natural protein)

Reference: PMC2664613
